Results as given in the nanobody polyreactivity screen of Harvey et al. (2022).

assay: yeast display, Sf9 membrane polyspecificity reagent, FACS + sequencing; frameworks hold sequencing errors
How it was run: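 Galactose-induced (36–48 hours) yeast carrying a synthetic nanobody display library were exposed to 10% biotinylated, detergent-solubilized Sf9 membrane reagent at 4 °C for 1 hour. FACS followed streptavidin microbead enrichment, using low and high (top ~1%) gates for expression (anti-HA) and reagent binding (streptavidin). Colony PCR, MiSeq 2 × 250 sequencing and CDR-length filtering followed. Labels for polyreactivity reflect the gate of origin.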

Row | Sequence | polyreactivity (PSR sort gate)
1 | QVQLVESGGDLVQAGGSLRLSCAASGRTFRYYAMGWYRLAPGKERELVAAISSSGDRTYYADSVKGRFTISRDTAKNTVYLQLNSLKPEDTAVYYCAADRGARGDYCGQGTQVTVSS | high polyreactivity
2 | QVQLVESGGDLVQAGGSLRLSCAASGRTFSANGMGWYRQAPGKERELVAAITRSGGITYYADSVKGRFTISRDNAKNTVYLQMNSLKPEDTAVYYCAASVYSLSRRSWMDYWGQGTQVTVSS | low polyreactivity
3 | QVQLVESGGDLVQAGGSLRLSCAATGYTFLRYTMGWYRQAPGKERELVAAITSGTSTYYADSVKGRFTISRDNEKNTVYLQMNSLKPEDTAVYYCDKTPTRQRYGHWGQGTQVTVSS | high polyreactivity
4 | QVQLVESGGGCSGGRSLRLSCAASGLIFVDNAMGWYRQAPGKERELVAAITWSTGSTYYADSVKGRFTISRDNAKNTVYLQMNSLKPEDTAVYYCNKRYKYRYYYWGQGTQVTVSS | low polyreactivity
5 | QVQLVESGGGFFQAGGRLRLSCAASGRIFGINAMGWYRQAPGKERELVAAISRSGGRTYYADSVKGRFTISRDNGKNTVYFQMNSLKPEDTAVYDCAQGDAHSYSRYDYWGPGTQVTVSS | high polyreactivity
6 | QVQLVESGGGFFQAGGSLRLSCAASGNTFGINAMRWYREAPGKERELVAAISWSGDRTYYADSVKGRFTISRDNAKNTVYLQMNSLKPEDTAVYYCAAGKYRFTYYALEYDYWGQGTQVTVSS | low polyreactivity
7 | QVQLVESGGGFVQAGGSLRLICAASGSILHSYSMGWYRQAPGKERELVAAISGSGGSTYYADSVKRRFTISRDNAKNTVYLQMNSLKPEDTAVYYCAAVWSRADRYYYWGQGTQVTVSS | low polyreactivity
8 | QVQLVESGGGFVQAGGSLRLRCAASGRTFGWYAMGWYRQAPGKERELVAAITWRGGSTYYADSVKGRFTISRDNAKNTVYLQMNSLKPEDTAVYYCAAAAEKRSYYWGQGTQVTVSS | high polyreactivity
9 | QVQLVESGGGFVQAGGSLRLSCAASGFIFRVYAMGWYRPAPGKERELVAAISKRGGSTFYADSVKGRFTISRDNANNTVYLQMNSLKPEDTAVYDCAASARLGYDYWGQGTQVTVSS | high polyreactivity
10 | QVQLVESGGGFVQAGGSLRLSCAASGFTFGWYALGWYRQAPGKERELVAAMSFGGSRTYYADSVKGRFSISRDNAKNTVYLQLNILNPEDTAVYYCNVVVGSYSANARSHYWGQGTEVTVSS | high polyreactivity
11 | QVQLVESGGGFVQAGGSLRLSCAASGGTFYRYAMGWYRQAPGKERELVAVISRGLRTNYADSVKGRFTISRDNAKNTVYFQMNSLQPEDTAVYYCAAHQYRVYRHGFDYWGQGTQVTVSS | high polyreactivity
12 | QVQLVESGGGFVQAGGSLRLSCAASGIIVRANAMGWYRQAPGKERELVAAISSSGGSTFYADSVKGRFTISLDNAKNYVYLQMNSLNPEDTAVYYCAAGRTKFAWSEYEYWGQGTQVTVSS | low polyreactivity
13 | QVQLVESGGGFVQAGGSLRLSCAASGNIFESYGMGWYRHAPGKERELVATINSSSGSTYYADSVKGRFTISRDNAKNTVYLQMNSLKPEDTAVYYCAAEWYPYPWGYGYWGQGTQVTVSS | low polyreactivity
14 | QVQLVESGGGFVQAGGSLRLSCAASGRTFPEYDMGRYRQAPGKERELVAAISTSGGSTYYADSVKGRFTISRDIAKNTVYLQMNSLKPEDTGVYYCAAQVTSIWGFTYAYRYDYWGQGTHVTVSS | low polyreactivity
15 | QVQLVESGGGFVQAGGSLRLSCAASGSIFDQYAMGWSRQAPGKERELVAGISSSGSTYADSVKGRFTISRDNAKNTVYLQMNSLKPEDTAVYSCAKDYGVLGGGTGSDRMDYWGQGSQVTVSS | low polyreactivity
16 | QVQLVESGGGFVQAGGSLRLSCAASGSTFHGYAMGWYRQEPGKERELVAAITSSGGSTYYADSVKGRFTISRDNAKNTVYLLMNILNPEVTEVYYCAARRYGWGRAQSSASYDHWGQGTQVTVSS | high polyreactivity
17 | QVQLVESGGGFVQAGGSLRLSCAASGSTFRYYAMGWYRQAPGTEREFVAAISWSGSSTYYADSVKGRFTISRDNAKNTVYLQMNSLKPEDTAVYYCAARYRYYGYDYWGQGTQVTVSS | high polyreactivity
18 | QVQLVESGGGFVQAGGSLRLSCAASGSTFSPNGMGWYRPAPGKERELVAAISSSTGSTNYADSVKGRFTISRDNAKNTVYLQMNSLKPEDTAVYYCAVDPYVHWTTKLYDYWGQGSQVTVSS | low polyreactivity
19 | QVQLVESGGGFVQAGGSLRLSCAASGYIFEWNAMGWYRQAPGKERELVASIDSDGSTYYADSVKGRFTISRDNAKNTVYLQMNSLKPEDTAVYYCNARGYTGGEVLAEYDYWGQGTQVTVSS | low polyreactivity
20 | QVQLVESGGGFVQAGGSLRLSCAGSGRIYYRYAMGWYSQERGKERELVAAISGSVGSTYADYVKGRFTISRDNAKNTVYLQMKSLKPEDTAFYYCARETYGRYGAYDYWGQGTQVTVSS | low polyreactivity
21 | QVQLVESGGGFVQAGGSLRLSSAASGLTFAAYAMGWSRQAPGKERELVASISRRGGSTYYADSVKGRFTISRDNAMNTVYLQMNSLKPEDTAVYYCAARSFWGGLRYDYWGQGTQVTVSS | high polyreactivity
22 | QVQLVESGGGFVQAGGSLRLSSAASGSTLPGYAMGSYRQAPGKERELVAGISTRGGNTYYADSVKGRFTISRDNAKNTVYLPMNSLKPEDTAVYYCAAGIPRQAYKFYWGQGTQVTVSS | high polyreactivity

Row | Sequence | polyreactivity (PSR sort gate)
23 | QVQLVESGGGFVQAGRSLRISSAPSGLMFLGKAMGWYRPAPGKERDLVGGIRALGGTTSYAYSVKGRFTISRDNAKNTVFLQLICKKPEDTELYVCAASYVSSRYFVLRHGDYYWGKGTQVTVSS | low polyreactivity
24 | QVQLVESGGGFVQAGVSLRLSCAASGLILVPNTMGWYRQAPGKERELVATITNGGSTNYADSVKGRFTISRDNAKNTVYLQMNSLKPEDTAVSYCNADHSYHIASTRHVDYWGQGTQVTVSS | low polyreactivity
25 | QVQLVESGGGIFQAGGSLRLSCSASGNTLVIYAMGWYRQAPVKESELVAAISRAGGTTYYADSVKGRFTISRDKAKNTVYLQMNSLKPEDTEVFYCNAGDHMRKRYGISATWGYGYGYWGQGSQVTVSS | high polyreactivity
26 | QVQLVESGGGILQAGGSLRLSCAASGFILSPNTMAWSRQAPGKERELVAAISSDVSTYADSVKGRFTISRDNAKNTVYLQINSLKPEDTAVYYCNADDFGYASYEYWGQATQVTVSS | low polyreactivity
27 | QVQLVESGGGILQAGGSLRLSCAASGSTFSGYAMGWYRQATGKERELVAAISSSGGSTYYADSVKGRFTISRDNAKNTVYLKMNSQKPEDTAVYYCAKRRYGKHYTGLTSYYYWGHGTQVTVSS | high polyreactivity
28 | QVQLVESGGGIVHAGGSLGLSCAASGRIFYSNAMGWYRQAPGKERELVAAISWNGGRTYYADSVKGRFTISRDNAKNTVYLQMKSLKPEDHAVYYCAVRYARQYYYRSGAYASRYLYNYWGQGTQVTVSS | high polyreactivity
29 | QVQLVESGGGIVHAGGSLRLSCAASGIIFLFYAMGWYRQARVKERELVASITWSGGSTYYADSVKGRFTISRDNAKNNVFLQMLSLKPEDTSVYYCAASVNIISYLVHSEFLGGELDYWGQGTQVTVSS | low polyreactivity
30 | QVQLVESGGGIVKAGGSLRISCAASGSTFIVNAMGWYRQAPGKERELVAAITEDGDTTYYADSVKGRFTISRDNAKNTVYLQMNSLKPEDTAVYFCAAETYYLDDYWGQGTQVTVSS | high polyreactivity
31 | QVQLVESGGGIVPAGGSLRLSCAASGLIFKTYTMGWSRQAPGKEREFVAAITTSGGSTYYADSVKGRFTISRDNAKNTVYLQMNSLKPEDTAVYSCGAVWWKSFQGSSYRMNYWGQGTQVTVSS | high polyreactivity
32 | QVQLVESGGGIVPAGGSLRLSCAASGLTFRFNAMGWYRQAPGKERELVADITVSGGRTYYADSVKGRFTISRDNAKNTVYLQMNSLKPEDTAVYYCARRRTVGVTEPFSRGYDYWGQGTQVTVSS | low polyreactivity
33 | QVQLVESGGGIVQAGGSLRFSCAASGGTFYRYAMGWYRLAPGNERELVAAISSSGGSTYYAVSVKGRFTISRDNAKNTVYLQMNSLKPEDTAVYYCAAYSFQSHNFDYWGQGSQVTVSS | high polyreactivity
34 | QVQLVESGGGIVQAGGSLRFSCAASGSTFLYYAMGWYRLAPGKETEFVADISFSGGSTYYADSVKGRFTSSRDNAKNTVYLQMNSLKPEDTGVYNCAARKKEYKAGNYWGQGTQVNVSS | low polyreactivity
35 | QVQLVESGGGIVQAGGSLRISCAASGSIFFGYAMGWYRPATGKERELVADITVGGGSPFYADSVKGRFTISRDNEKNTVYLQMNSLKPDDTAVYYCADDYYTQWLTRYDYWGQGTQVTLSS | low polyreactivity
36 | QVQLVESGGGIVQAGGSLRLICAASGSIFDGYAMGWYRQAPGKERELVAAISASGVRTYYADSVKGRFTISRDNAKNTVYLQMKSLKPEDTAVYYGAAAVYYGQSVWYYYWGQGTQVTVSS | high polyreactivity
37 | QVQLVESGGGIVQAGGSLRLLCAASGRIFTGNVMGWYRQAPGKERVLVAAISYGGGSTNYADSVKGRFTISRDNAKNTVSLQMNSLIPEDTAVYYCAVLYGYRSSSRYGYDSWGQGSQVTVSS | high polyreactivity
38 | QVQLVESGGGIVQAGGSLRLLCAASGSIFLTNAMGWYRQAPGKERQFVAAIDWGGTITYYADSVKGRFTISRDNAKNNVYLQMNSLKPEDTAVYYCAADGYIRQYVTYYYWGQGTQVTVSS | low polyreactivity
39 | QVQLVESGGGIVQAGGSLRLRCAASGFIFAVNAKGWYRQAPGKESELVAAISSSGTTNYADSVKGRFTISRDNAKNTVYLQMNSLKPEDTAVYYCNKRWRDKYPQYDYWGLGTQVTVSS | low polyreactivity
40 | QVQLVESGGGIVQAGGSLRLRCAASGSIFVPYAMGWYRQAPGKERELVAAISSRGGRTYYADSVKGRFTISRDNAKNTVYLQMNSLKPEDTAVYYCNKTAGSHIPRLEYWGQGTQVTVSS | low polyreactivity
41 | QVQLVESGGGIVQAGGSLRLSCAASGFIFGPYTMGWYRQAPGKERELVAAINNSGSTNYADSVKGRFTISRDNAKNTVYLQMNSLKPEDTAVYYCAAEPIIFVRYDYWGQGTHVTVSS | low polyreactivity
42 | QVQLVESGGGIVQAGGSLRLSCAASGFIFHLYGMGWYRQAPGKERELVAAISSGGRTYYADSVKGRFTISRDNAKNTVSLQMNSLKPEDTAVYSCAVYVAYLYSYYYWGQGTQVNVSS | low polyreactivity
43 | QVQLVESGGGIVQAGGSLRLSCAASGFIFRYAMGWYRPAPGKERELVAAISSSGGSTNYADSVKGRFTISRDNAKNTVYLQMNILKPEDSAVYYCAADQYYGGSWWYDYWGQGTQVSVSS | high polyreactivity
